Test results taken from the Human Domainome abundance scans (Beltran et al. 2025).
± gives the uncertainty stated by the source.

B1: Peripheral plasma membrane protein CASK, residues 488 to 569; numbered along this chain, O14936 (parent)
chain: VRLVQFQKNTDEPMGITLKMNELNHCIVARIMHGGMIHRQGTLHVGDEIREINGISVANQTVEQLQKMLREMRGSITFKIVP

Variants of: B1
Assay: abundance fitness (aPCA) (normalised: wild type 0, dead -1); higher = more abundant; growth selection in yeast, the domain comes from the species named
Details: Homo sapiens

**Q.** Which abundance fitness does the source give for VRLVQFQKNTDEPMGITLKMNELNHCIVARIMHGGMIHRQGTLHVGDEIREINGISVANQTVEQLQKMLREMRGSITFDIVP [K79D] here?
**A.** -0.27 ± 0.071

**Q.** With VRLVQFQKNFDEPMGITLKMNELNHCIVARIMHGGMIHRQGTLHVGDEIREINGISVANQTVEQLQKMLREMRGSITFKIVP [T10F] as the variant, how does the abundance fitness read?
**A.** 0.012 ± 0.085

**Q.** Which abundance fitness does the source give for VKLVQFQKNTDEPMGITLKMNELNHCIVARIMHGGMIHRQGTLHVGDEIREINGISVANQTVEQLQKMLREMRGSITFKIVP [R2K] here?
**A.** -0.055 ± 0.036

**Q.** With VRLVQFQKNTDEPMGITLKMNELNHCIVARIMHGGMIHRQGTLHVGDEIREINGISVANQTVEQLQKMLREMRGSIFFKIVP [T77F] as the variant, how does the abundance fitness read?
**A.** -0.019 ± 0.059

**Q.** With VRLVQFQKNTDEPMGITLKMNELNHCIVARIMHGGMIHRQGTLHVGDEIREINGISVANQTVEQLQKMLREMRGSIDFKIVP [T77D] as the variant, how does the abundance fitness read?
**A.** -0.061 ± 0.065

**Q.** With VRLVQFQKNTDEPMGITLKMNELNHCIVARIMHGGMIHRQGTLHVGDEIREINGISVTNQTVEQLQKMLREMRGSITFKIVP [A58T] as the variant, how does the abundance fitness read?
**A.** -0.017 ± 0.031

**Q.** For VRLVQFQKNTDEPMGITLKMNELNHCIVARIMHGAMIHRQGTLHVGDEIREINGISVANQTVEQLQKMLREMRGSITFKIVP [G35A], which abundance fitness is on record?
**A.** -0.098 ± 0.026

**Q.** For VRLVQFQKNTDEPMGITLKMNELNHCIVARIMHGIMIHRQGTLHVGDEIREINGISVANQTVEQLQKMLREMRGSITFKIVP [G35I], which abundance fitness is on record?
**A.** -0.843 ± 0.17

**Q.** With VRLVSFQKNTDEPMGITLKMNELNHCIVARIMHGGMIHRQGTLHVGDEIREINGISVANQTVEQLQKMLREMRGSITFKIVP [Q5S] as the variant, how does the abundance fitness read?
**A.** 0.075 ± 0.024

**Q.** With VRLVQFQKNTAEPMGITLKMNELNHCIVARIMHGGMIHRQGTLHVGDEIREINGISVANQTVEQLQKMLREMRGSITFKIVP [D11A] as the variant, how does the abundance fitness read?
**A.** -0.027 ± 0.031

**Q.** With VRLVQFQKNTDEPMGITLKMNELNHCIVARIMHGGMIHRQGTLHVGDEIRCINGISVANQTVEQLQKMLREMRGSITFKIVP [E51C] as the variant, how does the abundance fitness read?
**A.** -0.34 ± 0.25

**Q.** With VRLVQFQKNTDEPMGITLKMNELNHCIVARIMHGGMIHRQGTLHVGDEIREINGISVANQTVEQLQKELREMRGSITFKIVP [M68E] as the variant, how does the abundance fitness read?
**A.** -0.038 ± 0.029

**Q.** For VRLVQFQKNTDEPMGITLKMNELNHCIVARIMHGGMIHRQGTLHVGDEIREINGISVANQTVEQLQKMLREMRGSITFKIVQ [P82Q], which abundance fitness is on record?
**A.** 0.02 ± 0.073

**Q.** For VRLVQFQKNTDEPMGITLKMNELNHCIVARIMHGGMIHRQGTLHVGDEIREINGISVANQTVEQLQKMLREMRGSITFKIVI [P82I], which abundance fitness is on record?
**A.** -0.237 ± 0.27

**Q.** For VRLVQFQKHTDEPMGITLKMNELNHCIVARIMHGGMIHRQGTLHVGDEIREINGISVANQTVEQLQKMLREMRGSITFKIVP [N9H], which abundance fitness is on record?
**A.** -0.027 ± 0.04

**Q.** Which abundance fitness does the source give for VRLVQFQKNTDEPMGITLKMNELNDCIVARIMHGGMIHRQGTLHVGDEIREINGISVANQTVEQLQKMLREMRGSITFKIVP [H25D] here?
**A.** -0.163 ± 0.037

**Q.** With VRLVQFQKNTDEPMGITLKMNELNLCIVARIMHGGMIHRQGTLHVGDEIREINGISVANQTVEQLQKMLREMRGSITFKIVP [H25L] as the variant, how does the abundance fitness read?
**A.** -0.064 ± 0.025

**Q.** Which abundance fitness does the source give for VRLVQFQKNTDEPMGITLKMNELNCCIVARIMHGGMIHRQGTLHVGDEIREINGISVANQTVEQLQKMLREMRGSITFKIVP [H25C] here?
**A.** -0.013 ± 0.031

**Q.** Which abundance fitness does the source give for VRLVQFQKNTDEPMGITLKMNELNHCIVARIMHGGMIHRQRTLHVGDEIREINGISVANQTVEQLQKMLREMRGSITFKIVP [G41R] here?
**A.** -0.127 ± 0.021

**Q.** For VRLVQGQKNTDEPMGITLKMNELNHCIVARIMHGGMIHRQGTLHVGDEIREINGISVANQTVEQLQKMLREMRGSITFKIVP [F6G], which abundance fitness is on record?
**A.** -0.405 ± 0.022

**Q.** With VRLVQSQKNTDEPMGITLKMNELNHCIVARIMHGGMIHRQGTLHVGDEIREINGISVANQTVEQLQKMLREMRGSITFKIVP [F6S] as the variant, how does the abundance fitness read?
**A.** -0.321 ± 0.027

**Q.** Which abundance fitness does the source give for VRLVQFQANTDEPMGITLKMNELNHCIVARIMHGGMIHRQGTLHVGDEIREINGISVANQTVEQLQKMLREMRGSITFKIVP [K8A] here?
**A.** -0.071 ± 0.025

**Q.** Which abundance fitness does the source give for VRLVQFQKNTDEPMGITLKMNELNHCIVARIMHGGMIHRQGTLHVGDEIREIWGISVANQTVEQLQKMLREMRGSITFKIVP [N53W] here?
**A.** -0.972 ± 0.17

**Q.** With VRLVQFQKNTDEPMGITLKMNELNHCIVARIMHGGMIHRQGTLHVGDEIREILGISVANQTVEQLQKMLREMRGSITFKIVP [N53L] as the variant, how does the abundance fitness read?
**A.** -0.903 ± 0.12

**Q.** With VRLVQFQKNTDETMGITLKMNELNHCIVARIMHGGMIHRQGTLHVGDEIREINGISVANQTVEQLQKMLREMRGSITFKIVP [P13T] as the variant, how does the abundance fitness read?
**A.** -0.041 ± 0.052

**Q.** With VRLVQFQKNTDEYMGITLKMNELNHCIVARIMHGGMIHRQGTLHVGDEIREINGISVANQTVEQLQKMLREMRGSITFKIVP [P13Y] as the variant, how does the abundance fitness read?
**A.** -0.154 ± 0.056

**Q.** With VRLVQFQKNTDEPMGITLKMNELNHCIVARIMHGGMIHRQGTLHVGDEGREINGISVANQTVEQLQKMLREMRGSITFKIVP [I49G] as the variant, how does the abundance fitness read?
**A.** -1.05 ± 0.11

**Q.** With VRLVQFQKNTDEPMGITLKMNELNHCIVARIMHGGMIHRQGTLHVGDEIREINGIEVANQTVEQLQKMLREMRGSITFKIVP [S56E] as the variant, how does the abundance fitness read?
**A.** -0.018 ± 0.025

**Q.** For VRLVQFQKNTDEPMGITLKMNELNHCIVARIMHRGMIHRQGTLHVGDEIREINGISVANQTVEQLQKMLREMRGSITFKIVP [G34R], which abundance fitness is on record?
**A.** -0.194 ± 0.035

**Q.** With VRLVQFQKNTDEPMGITLKMNELNHCIVARIMHGGMIHRQGTLHVGDEIREINGISVANQTVEQLQKMLREMRGSATFKIVP [I76A] as the variant, how does the abundance fitness read?
**A.** -0.308 ± 0.033

**Q.** With VRLVQFQKNTDEPMGITLKMNELNHCIVARIMHGGMIHRQGTLHVGDEIREINGISVANQTVEQLQKMLREMRGSGTFKIVP [I76G] as the variant, how does the abundance fitness read?
**A.** -0.157 ± 0.023

**Q.** For VRLVQFQKNTDEPMGITLKMNELNHCIVARIMHGGMIHRQGTLHVGDEIREINGISVANQTVEQLQKMLREMRGSFTFKIVP [I76F], which abundance fitness is on record?
**A.** -0.173 ± 0.054

**Q.** For VRLVQFQKNTDEPMGITLKMNELNHCIVARIMHGGMIHRQGTLHVGDEIREINGISVANQTVEQLQKMLREMIGSITFKIVP [R73I], which abundance fitness is on record?
**A.** -0.04 ± 0.046

**Q.** For VRLVQFQKNTDEPMGITLKMNELNHCIVARIMHGGMIHRQGTLHVGDEIREINGISVANQTVEQLQKMFREMRGSITFKIVP [L69F], which abundance fitness is on record?
**A.** -0.101 ± 0.048
